B2: cynomolgus monkey TL1A, soluble, E. coli-expressed, residues 72-251 of SEQ ID NO:248 (ligand)
chain: LKGQEFAPSHQQVYAPLRADGDKPRAHLTVVRQTPTQHLKNQFPALHWEHELGLAFTKNRMNYTNKFLLIPESGDYFVYSQVTFRGMTSECSEIRQAGRPNKPDSITVVITKVTDSYPEPTQLLMGTKSVCEVGSNWFQPIYLGAMFSLQEGDKLMVNVSDISLVDYTKEDKTFFGAFLL
B3: mouse TL1A, soluble, E. coli-expressed, residues 76-252 of SEQ ID NO:250 (ligand)
chain: ITEERSEPSPQQVYSPPRGKPRAHLTIKKQTPAPHLKNQLSALHWEHDLGMAFTKNGMKYINKSLVIPESGDYFIYSQITFRGTTSVCGDISRGRRPNKPDSITMVITKVADSYPEPARLLTGSKSVCEISNNWFQSLYLGATFSLEEGDRLMVNVSDISLVDYTKEDKTFFGAFLL

What was measured:
[1] = target: T1, human DR3, full-length, expressed on HEK293 NFkB-luciferase reporter cells (human, UniProt Q93038 25-417); assay: cell-based or functional assay
T1 sequence: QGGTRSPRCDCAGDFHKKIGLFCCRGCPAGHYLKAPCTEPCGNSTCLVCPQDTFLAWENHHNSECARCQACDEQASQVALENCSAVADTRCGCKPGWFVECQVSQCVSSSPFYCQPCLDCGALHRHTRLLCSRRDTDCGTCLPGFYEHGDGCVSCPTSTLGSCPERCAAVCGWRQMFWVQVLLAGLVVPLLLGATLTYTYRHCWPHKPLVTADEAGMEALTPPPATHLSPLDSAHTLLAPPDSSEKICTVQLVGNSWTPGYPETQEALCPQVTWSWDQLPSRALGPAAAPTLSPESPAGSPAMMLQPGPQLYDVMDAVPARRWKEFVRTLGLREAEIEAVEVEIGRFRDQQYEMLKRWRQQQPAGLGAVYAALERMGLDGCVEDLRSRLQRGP

[2] = target: B3; assay: SPR 25C, steady state
Description: Measurements were conducted on a T100 BIACORE™ instrument. […] Kinetic association (kₐ) and dissociation (kd) rate constants were determined by fitting the data to a 1:1 binding model using BIAevaluation 4.1 curve fitting software (BIAcore Life Sciences). Molar concentrations of TL1A/Fhm used in the data fitting assumed a monomeric state for TL1A in solution. […]

[3] = target: T2, Fhm, hTL1A(Q167R), soluble, E. coli-expressed, residues 72-251 of SEQ ID NO:246 (human, UniProt O95150 72-251); assay: SPR 25C, mAb captured
T2 construct: with or without N-terminal Met
T2 chain: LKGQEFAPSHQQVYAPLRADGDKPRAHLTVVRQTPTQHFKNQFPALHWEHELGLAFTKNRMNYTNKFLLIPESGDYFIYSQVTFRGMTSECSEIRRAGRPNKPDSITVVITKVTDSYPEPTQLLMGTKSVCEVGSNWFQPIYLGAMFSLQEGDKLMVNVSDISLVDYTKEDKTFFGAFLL
Description: (§1) Measurements were conducted on a T100 BIACORE™ instrument. […] Kinetic association (kₐ) and dissociation (kd) rate constants were determined by fitting the data to a 1:1 binding model using BIAevaluation 4.1 curve fitting software (BIAcore Life Sciences). Molar concentrations of TL1A/Fhm used in the data fitting assumed a monomeric state for TL1A in solution. Binding dissociation equilibrium constants (KD) and dissociative half-lives (t_{1/2}) were calculated from the kinetic rate constants as: KD (M)=kd/kₐ; and t_{1/2} (min)=[In2/(60*kd)].

[4] = target: B2; assay: SPR 25C, mAb captured
Description: as §1

[5] = target: B2; assay: SPR 37C, mAb captured
Description: as §1

B1: human TL1A, soluble, E. coli-expressed, residues 72-251 of SEQ ID NO:244 (ligand)
chain: LKGQEFAPSHQQVYAPLRADGDKPRAHLTVVRQTPTQHFKNQFPALHWEHELGLAFTKNRMNYTNKFLLIPESGDYFIYSQVTFRGMTSECSEIRQAGRPNKPDSITVVITKVTDSYPEPTQLLMGTKSVCEVGSNWFQPIYLGAMFSLQEGDKLMVNVSDISLVDYTKEDKTFFGAFLL
EC50, NFkB-luciferase reporter [1]: 0.12 nM

B2
EC50, NFkB-luciferase reporter [1]: 2.02 nM

B3
EC50, NFkB-luciferase reporter [1]: 0.01 nM

B4: H2M1704N (antibody, V domains shown)
VH: EVQLVESGGGLVQPGGSLRLSCAVSGFTFSSYWMSWVRQAPGKGLEWVANIKEDGSEKNYVDSVKGRFTLSSDNAKNSLYLQMNSLRAEDTAVYYCAREDYDSYYKYGMDVWGQGTAVIVSS
VL: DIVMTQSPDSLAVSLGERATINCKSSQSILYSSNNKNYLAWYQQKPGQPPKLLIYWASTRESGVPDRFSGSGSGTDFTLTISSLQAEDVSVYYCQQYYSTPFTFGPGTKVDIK
notes: chimeric hybridoma antibody: human variable regions, mouse constant regions (mouse Fc)
Kd [2]: 127 nM | Kd [3]: 0.282 nM | t1/2 [3]: 52 min | Kd [4]: 0.285 nM | t1/2 [4]: 57 min | Kd [5]: 0.751 nM | t1/2 [5]: 16 min

B5: mouse TL1A, soluble, CHO-expressed, residues 76-252 of SEQ ID NO:250 with N-terminal His6-tag (ligand)
chain: HHHHHHITEERSEPSPQQVYSPPRGKPRAHLTIKKQTPAPHLKNQLSALHWEHDLGMAFTKNGMKYINKSLVIPESGDYFIYSQITFRGTTSVCGDISRGRRPNKPDSITMVITKVADSYPEPARLLTGSKSVCEISNNWFQSLYLGATFSLEEGDRLMVNVSDISLVDYTKEDKTFFGAFLL
EC50, NFkB-luciferase reporter [1]: 0.08 nM

B6: human TL1A, soluble, CHO-expressed, residues 72-251 of SEQ ID NO:244 with N-terminal His6-tag (ligand)
chain: HHHHHHLKGQEFAPSHQQVYAPLRADGDKPRAHLTVVRQTPTQHFKNQFPALHWEHELGLAFTKNRMNYTNKFLLIPESGDYFIYSQVTFRGMTSECSEIRQAGRPNKPDSITVVITKVTDSYPEPTQLLMGTKSVCEVGSNWFQPIYLGAMFSLQEGDKLMVNVSDISLVDYTKEDKTFFGAFLL
EC50, NFkB-luciferase reporter [1]: 0.63 nM

B7: cynomolgus monkey TL1A, soluble, CHO-expressed, residues 72-251 of SEQ ID NO:248 with N-terminal His6-tag (ligand)
chain: HHHHHHLKGQEFAPSHQQVYAPLRADGDKPRAHLTVVRQTPTQHLKNQFPALHWEHELGLAFTKNRMNYTNKFLLIPESGDYFVYSQVTFRGMTSECSEIRQAGRPNKPDSITVVITKVTDSYPEPTQLLMGTKSVCEVGSNWFQPIYLGAMFSLQEGDKLMVNVSDISLVDYTKEDKTFFGAFLL
EC50, NFkB-luciferase reporter [1]: 0.86 nM

B8: Fhm, hTL1A(Q167R), soluble, CHO-expressed, residues 72-251 of SEQ ID NO:246 (ligand)
chain: HHHHHHLKGQEFAPSHQQVYAPLRADGDKPRAHLTVVRQTPTQHFKNQFPALHWEHELGLAFTKNRMNYTNKFLLIPESGDYFIYSQVTFRGMTSECSEIRRAGRPNKPDSITVVITKVTDSYPEPTQLLMGTKSVCEVGSNWFQPIYLGAMFSLQEGDKLMVNVSDISLVDYTKEDKTFFGAFLL
EC50, NFkB-luciferase reporter [1]: 0.32 nM

B9: rat TL1A, soluble, CHO-expressed, residues 76-252 of SEQ ID NO:258 with N-terminal His6-tag (ligand)
chain: HHHHHHVTEERSAPSAQPVYTPSRDKPKAHLTIMRQTPVPHLKNELAALHWENNLGMAFTKNRMNYTNKFLVIPESGDYFIYSQITFRGTTSECGDISRVRRPKKPDSITVVITKVADSYPEPAHLLTGTKSVCEISSNWFQPIYLGAMFSLEEGDRLMVNVSDISLVDYTKEDKTFFGAFLI
EC50, NFkB-luciferase reporter [1]: 0.06 nM

From patent US20140120109A1 (Regeneron, published 2014)
